Source: article PMC8218686

Test system: T1, YhjC-His6 (Shigella flexneri (serotype 5a M90T?)), ORF:c5ce7ff9
T1 sequence: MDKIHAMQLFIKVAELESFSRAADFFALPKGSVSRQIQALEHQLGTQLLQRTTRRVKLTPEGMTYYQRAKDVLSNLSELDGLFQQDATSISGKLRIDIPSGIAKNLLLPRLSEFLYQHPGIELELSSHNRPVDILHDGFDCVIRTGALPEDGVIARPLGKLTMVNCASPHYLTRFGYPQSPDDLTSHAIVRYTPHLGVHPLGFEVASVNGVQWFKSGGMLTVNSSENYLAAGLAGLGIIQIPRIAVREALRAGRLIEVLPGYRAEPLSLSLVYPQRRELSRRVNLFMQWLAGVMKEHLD
Assay: EMSA
Conditions: 20 mM Tris-HCl pH 7.5, 50 mM KCl, 1 mM EDTA, 1 mM DTT, 5% glycerol

**Q.** “GGTTATAGTCCCTTTCAGTGCAAATACTTAGCTTGTTGCACAGAGAAATAGAAGCTGCATAAGCTCTTTCTTCAAAAAATGTAAATAAAGTTAAATATAGGAAAAATTACTTAATCTATCTTAATAACGGAAAGATTTTGTATACAATCACTGTTACAGAAATTTCTTAGTTACTCTGTAAACACTAAATATAGTTTGGTATATTCTGTTGAATTTATGATGGATATGGGACATAAAAACAAAATAGATATAAAGGTTCGCTTGCATAAC (double strand) [virF promoter (PvirF)]” was tested. Which binding did it give?
**A.** binds
